Source: patent US20130197070, “AXL RECEPTOR TYROSINE KINASE APTAMER INHIBITOR FOR USE IN THERAPY” (CNR - CONSIGLIO NAZIONALE DELLE RICERCHE, published 2013)

What was measured:
[1] = target: T1, Mer extracellular domain (EC-Mer) (UniProt Q12866 Q12866:21-505); assay: filter; no Kd calculable up to 1000 nM protein; no binding or affinity at least 10^3 lower; PBS, 0.01% BSA, 37 C; details: tags: soluble extracellular domain, R&D Systems; label: 5'-32P
T1 sequence: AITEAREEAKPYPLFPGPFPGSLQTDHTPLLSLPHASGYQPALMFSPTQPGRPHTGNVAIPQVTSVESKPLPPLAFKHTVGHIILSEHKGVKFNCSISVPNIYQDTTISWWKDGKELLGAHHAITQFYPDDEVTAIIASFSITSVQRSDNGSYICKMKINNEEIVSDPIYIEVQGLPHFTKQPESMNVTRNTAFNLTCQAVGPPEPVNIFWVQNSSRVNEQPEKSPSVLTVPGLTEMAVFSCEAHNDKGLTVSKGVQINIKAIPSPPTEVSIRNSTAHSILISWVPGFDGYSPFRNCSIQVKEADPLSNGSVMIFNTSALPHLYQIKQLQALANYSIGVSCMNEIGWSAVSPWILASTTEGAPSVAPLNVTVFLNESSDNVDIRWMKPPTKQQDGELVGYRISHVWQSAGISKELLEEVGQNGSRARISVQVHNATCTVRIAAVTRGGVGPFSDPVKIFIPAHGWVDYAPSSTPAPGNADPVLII
Protocol: (§1) 1 nM of radiolabelled aptamers (GL21 52-85 or Unrelated) were incubated with 1, 3.2, 10, 32, 100, 320 and 1000 nM of Axl, Dtk, Mer soluble extracellular domain (all from R&D Systems, Minneapolis, Minn.) for 15 min at 37° in phosphate-buffered saline (PBS) supplemented with 0.01% bovine serum albumin.
(§2) After incubation, the aptamer-protein mix was passed through nitrocellulose membrane filter (Millipore Co., Bedford, Mass.) and filters were counted.

[2] = target: Axl extracellular domain (EC-Axl) (UniProt P30530 P30530:26-451); assay: filter; PBS, 0.01% BSA, 37 C, 15 min; unrelated aptamer background subtracted; details: tags: soluble extracellular domain, R&D Systems; label: 5'-32P
Protocol: as §1, §2

[3] = target: T2, Dtk (Tyro3) extracellular domain (EC-Dtk) (UniProt Q06418 Q06418:41-429); assay: as above; details: tags: soluble extracellular domain, R&D Systems; label: 5'-32P
T2 sequence: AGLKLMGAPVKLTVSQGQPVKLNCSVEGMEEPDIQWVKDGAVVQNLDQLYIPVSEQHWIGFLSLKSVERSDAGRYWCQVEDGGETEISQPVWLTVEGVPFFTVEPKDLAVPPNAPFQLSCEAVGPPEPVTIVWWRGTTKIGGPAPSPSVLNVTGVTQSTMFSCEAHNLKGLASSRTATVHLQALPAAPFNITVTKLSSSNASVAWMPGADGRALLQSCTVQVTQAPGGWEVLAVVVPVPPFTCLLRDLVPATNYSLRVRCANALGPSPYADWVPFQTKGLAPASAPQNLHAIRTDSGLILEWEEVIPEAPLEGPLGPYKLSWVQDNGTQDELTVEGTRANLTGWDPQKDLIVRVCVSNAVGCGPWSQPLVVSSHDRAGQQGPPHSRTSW
Protocol: as §1, §2

[4] = target: Axl receptor tyrosine kinase (cell surface) (Homo sapiens, UniProt P30530 P30530:26-894); assay: binding to Axl-positive U87MG cells; reduced by Axl shRNA; binds Axl-transfected SKBr3 but not parental SKBr3; details: label: 5'-32P
Chain of Axl receptor tyrosine kinase (cell surface) (P30530 26-894, one chain of several): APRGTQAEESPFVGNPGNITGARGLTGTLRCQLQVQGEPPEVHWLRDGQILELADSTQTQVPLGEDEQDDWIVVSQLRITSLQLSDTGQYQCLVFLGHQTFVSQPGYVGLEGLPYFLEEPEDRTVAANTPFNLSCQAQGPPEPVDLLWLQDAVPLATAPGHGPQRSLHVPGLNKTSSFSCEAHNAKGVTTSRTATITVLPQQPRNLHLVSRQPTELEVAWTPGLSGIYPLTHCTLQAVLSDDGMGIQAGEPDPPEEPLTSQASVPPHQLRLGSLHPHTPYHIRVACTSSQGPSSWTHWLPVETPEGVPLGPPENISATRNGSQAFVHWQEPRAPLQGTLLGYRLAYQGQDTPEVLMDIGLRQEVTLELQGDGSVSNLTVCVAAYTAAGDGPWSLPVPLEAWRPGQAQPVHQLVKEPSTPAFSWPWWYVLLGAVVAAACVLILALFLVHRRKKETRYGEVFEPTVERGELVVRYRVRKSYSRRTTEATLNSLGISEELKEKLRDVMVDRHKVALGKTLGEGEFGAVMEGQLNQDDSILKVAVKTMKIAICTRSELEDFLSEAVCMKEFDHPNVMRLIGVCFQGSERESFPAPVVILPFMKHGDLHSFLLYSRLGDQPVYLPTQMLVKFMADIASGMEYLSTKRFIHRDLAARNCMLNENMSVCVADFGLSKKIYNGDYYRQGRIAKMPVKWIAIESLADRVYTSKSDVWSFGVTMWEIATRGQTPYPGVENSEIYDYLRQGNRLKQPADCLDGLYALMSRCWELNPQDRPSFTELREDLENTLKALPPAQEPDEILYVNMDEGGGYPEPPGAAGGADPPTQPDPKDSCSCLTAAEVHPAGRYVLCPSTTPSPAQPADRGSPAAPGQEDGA

Chain of Axl extracellular domain (EC-Axl) (P30530 26-451, one chain of several): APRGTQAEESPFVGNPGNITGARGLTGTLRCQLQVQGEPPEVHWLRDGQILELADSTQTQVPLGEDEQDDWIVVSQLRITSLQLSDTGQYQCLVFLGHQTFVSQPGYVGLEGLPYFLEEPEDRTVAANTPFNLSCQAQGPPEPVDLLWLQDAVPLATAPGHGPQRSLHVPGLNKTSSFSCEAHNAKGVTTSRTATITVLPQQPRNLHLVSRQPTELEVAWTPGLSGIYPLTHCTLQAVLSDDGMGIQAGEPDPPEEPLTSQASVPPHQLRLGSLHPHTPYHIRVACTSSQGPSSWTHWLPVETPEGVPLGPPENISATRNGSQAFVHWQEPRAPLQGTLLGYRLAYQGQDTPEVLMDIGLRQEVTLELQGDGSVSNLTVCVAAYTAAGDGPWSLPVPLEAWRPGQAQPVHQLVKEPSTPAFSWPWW

In the case of AUGAUCAAUCGCCUCAAUUCGACAGGAGGCUCAC (ssRNA, 2'-F on all pyrimidines) [GL21 52-85 (GL21.T)], the binding result [1] is reported as “no binding”, the Kd [2] is reported as 13 nM and the Kd [3] is reported as 47 nM. For the same binder, the Kd [4] was 90 nM.
